These results are taken from the supplement of paper PMC11316812.

± gives the standard deviation of the averaged measurements.

The subject of data set [1] is MCF7. The data set is described as follows: percentage of EdU-negative (G0-arrested) nuclei per well, 72 h; higher = more G0 arrest. The following applies: reference: sequence is the full UniProt precursor, the tested protein was the secreted form or ectodomain.
Data set [2] deals with hTERT-HMEC. The data set is described as above. The following applies: reference: sequence is the full UniProt precursor, the tested protein was the secreted form or ectodomain.
Setting [3] is: protein concentration 0.0225 µM.
Where [4] appears, read: protein concentration 0.02075 µM.
The mark [5] stands for this setting: protein concentration 0.2075 µM.
Setting [6] is: protein concentration 0.0257143 µM.
Setting [7] is: protein concentration 0.257143 µM.
Where [8] appears, read: protein concentration 0.03125 µM.
Setting [9] is: protein concentration 0.3125 µM.
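Also: secreted proteins added to cultured cells, EdU pulse at the end, nuclei found by Hoechst imaging, EdU status from nuclear versus surrounding ring intensity ratio, PBS as neutral control.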

In the case of “MDGAMGPRGLLLCMYLVSLLILQAMPALGSATGRSKSSEKRQAVDTAVDGVFIRSLKVNCKVTSRFAHYVVTSQVVNTANEAREVAFDLEIPKTAFISDFAVTADGNAFIGDIKDKVTAWKQYRKAAISGENAGLVRASGRTMEQFTIHLTVNPQSKVTFQLTYEEVLKRNHMQYEIVIKVKPKQLVHHFEIDVDIFEPQGISKLDAQASFLPKELAAQTIKKSFSGKKGHVLFRPTVSQQQSCPTCSTSLLNGHFKVTYDVSRDKICDLLVANNHFAHFFAPQNLTNMNKNVVFVIDISGSMRGQKVKQTKEALLKILGDMQPGDYFDLVLFGTRVQSWKGSLVQASEANLQAAQDFVRGFSLDEATNLNGGLLRGIEILNQVQESLPELSNHASILIMLTDGDPTEGVTDRSQILKNVRNAIRGRFPLYNLGFGHNVDFNFLEVMSMENNGRAQRIYEDHDATQQLQGFYSQVAKPLLVDVDLQYPQDAVLALTQNHHKQYYEGSEIVVAGRIADNKQSSFKADVQAHGEGQEFSITCLVDEEEMKKLLRERGHMLENHVERLWAYLTIQELLAKRMKVDREERANLSSQALQMSLDYGFVTPLTSMSIRGMADQDGLKPTIDKPSEDSPPLEMLGPRRTFVLSALQPSPTHSSSNTQRLPDRVTGVDTDPHFIIHVPQKEDTLCFNINEEPGVILSLVQDPNTGFSVNGQLIGNKARSPGQHDGTYFGRLGIANPATDFQLEVTPQNITLNPGFGGPVFSWRDQAVLRQDGVVVTINKKRNLVVSVDDGGTFEVVLHRVWKGSSVHQDFLGFYVLDSHRMSARTHGLLGQFFHPIGFEVSDIHPGSDPTKPDATMVVRNRRLTVTRGLQKDYSKDPWHGAEVSCWFIHNNGAGLIDGAYTDYIVPDIF”, the “percentage of EdU-negative” value in data set [1] (setting [3]) was found to be 26.48 ± 0.18%; in data set [1] (protein concentration 0.225 µM), 26 ± 0.27%; in data set [2] (setting [3]), 5.89 ± 0.64%; in data set [2] (protein concentration 0.225 µM), 6.12 ± 0.16%.
Regarding “MERRAWSLQCTAFVLFCAWCALNSAKAKRQFVNEWAAEIPGGPEAASAIAEELGYDLLGQIGSLENHYLFKHKNHPRRSRRSAFHITKRLSDDDRVIWAEQQYEKERSKRSALRDSALNLFNDPMWNQQWYLQDTRMTAALPKLDLHVIPVWQKGITGKGVVITVLDDGLEWNHTDIYANYDPEASYDFNDNDHDPFPRYDPTNENKHGTRCAGEIAMQANNHKCGVGVAYNSKVGGIRMLDGIVTDAIEASSIGFNPGHVDIYSASWGPNDDGKTVEGPGRLAQKAFEYGVKQGRQGKGSIFVWASGNGGRQGDNCDCDGYTDSIYTISISSASQQGLSPWYAEKCSSTLATSYSSGDYTDQRITSADLHNDCTETHTGTSASAPLAAGIFALALEANPNLTWRDMQHLVVWTSEYDPLANNPGWKKNGAGLMVNSRFGFGLLNAKALVDLADPRTWRSVPEKKECVVKDNDFEPRALKANGEVIIEIPTRACEGQENAIKSLEHVQFEATIEYSRRGDLHVTLTSAAGTSTVLLAERERDTSPNGFKNWDFMSVHTWGENPIGTWTLRITDMSGRIQNEGRIVNWKLILHGTSSQPEHMKQPRVYTSYNTVQNDRRGVEKMVDPGEEQPTQENPKENTLVSKSPSSSSVGGRRDELEEGAPSQAMLRLLQSAFSKNSPPKQSPKKSPSAKLNIPYENFYEALEKLNKPSQLKDSEDSLYNDYVDVFYNTKPYKHRDDRLLQALVDILNEEN”, the “percentage of EdU-negative” value is 25.7 ± 4% in data set [1] (protein concentration 0.009 µM), 27.832 ± 0.026% in data set [1] (protein concentration 0.09 µM), 4.928 ± 0.013% in data set [2] (protein concentration 0.009 µM) and 7.51 ± 0.97% in data set [2] (protein concentration 0.09 µM).
As to “MEKKWKYCAVYYIIQIHFVKGVWEKTVNTEENVYATLGSDVNLTCQTQTVGFFVQMQWSKVTNKIDLIAVYHPQYGFYCAYGRPCESLVTFTETPENGSKWTLHLRNMSCSVSGRYECMLVLYPEGIQTKIYNLLIQTHVTADEWNSNHTIEIEINQTLEIPCFQNSSSKISSEFTYAWSVENSSTDSWVLLSKGIKEDNGTQETLISQNHLISNSTLLKDRVKLGTDYRLHLSPVQIFDDGRKFSCHIRVGPNKILRSSTTVKVFAKPEIPVIVENNSTDVLVERRFTCLLKNVFPKANITWFIDGSFLHDEKEGIYITNEERKGKDGFLELKSVLTRVHSNKPAQSDNLTIWCMALSPVPGNKVWNISSEKITFLLGSEISSTDPPLSVTESTLDTQPSPASSVSPARYPATSSVTLVDVSALRPNTTPQPSNSSMTTRGFNYPWTSSGTDTKKSVSRIPSETYSSSPSGAGSTLHDNVFTSTARAFSEVPTTANGSTKTNHVHITGIVVNKPKDGMSWPVIVAALLFCCMILFGLGVRKWCQYQKEIMERPPPFKPPPPPIKYTCIQEPNESDLPYHEMETL”, the “percentage of EdU-negative” value in data set [1] (setting [4]) was 25.5 ± 0.86%; in data set [1] (setting [5]) it was 29.5 ± 0.78%; in data set [2] (setting [4]), 4.86 ± 1%; in data set [2] (setting [5]) it was 12.1 ± 1.3%.
With “MQIITTALVCLLLAGMWPEDVDSKSMQVPFSRCCFSFAEQEIPLRAILCYRNTSSICSNEGLIFKLKRGKEACALDTVGWVQRHRKMLRHCPSKRK”, the “percentage of EdU-negative” value in data set [1] (setting [3]) worked out at 24.1 ± 3.4%; in data set [1] (protein concentration 0.225 µM), 25.4 ± 0.28%; in data set [2] (setting [3]), 4.79 ± 0.52%; in data set [2] (protein concentration 0.225 µM), 12 ± 1.1%.
For “MSRGLQLLLLSCAYSLAPATPEVKVACSEDVDLPCTAPWDPQVPYTVSWVKLLEGGEERMETPQEDHLRGQHYHQKGQNGSFDAPNERPYSLKIRNTTSCNSGTYRCTLQDPDGQRNLSGKVILRVTGCPAQRKEETFKKYRAEIVLLLALVIFYLTLIIFTCKFARLQSIFPDFSKAGMERAFLPVTSPNKHLGLVTPHKTELV”, the “percentage of EdU-negative” value in data set [1] (setting [3]) is 25.6 ± 5.2%; in data set [1] (protein concentration 0.225 µM), 25.7 ± 2.3%; in data set [2] (setting [3]), 4.68 ± 0.067%; in data set [2] (protein concentration 0.225 µM), 8.57 ± 0.3%.
As for “MVAPKSHTDDWAPGPFSSKPQRSQLQIFSSVLQTSLLFLLMGLRASGKDSAPTVVSGILGGSVTLPLNISVDTEIENVIWIGPKNALAFARPKENVTIMVKSYLGRLDITKWSYSLCISNLTLNDAGSYKAQINQRNFEVTTEEEFTLFVYEQLQEPQVTMKSVKVSENFSCNITLMCSVKGAEKSVLYSWTPREPHASESNGGSILTVSRTPCDPDLPYICTAQNPVSQRSSLPVHVGQFCTDPGASRGGTTGETVVGVLGEPVTLPLALPACRDTEKVVWLFNTSIISKEREEAATADPLIKSRDPYKNRVWVSSQDCSLKISQLKIEDAGPYHAYVCSEASSVTSMTHVTLLIYRRLRKPKITWSLRHSEDGICRISLTCSVEDGGNTVMYTWTPLQKEAVVSQGESHLNVSWRSSENHPNLTCTASNPVSRSSHQFLSENICSGPERNTKLWIGLFLMVCLLCVGIFSWCIWKRKGRCSVPAFCSSQAEAPADTPEPTAGHTLYSVLSQGYEKLDTPLRPARQQPTPTSDSSSDSNLTTEEDEDRPEVHKPISGRYEVFDQVTQEGAGHDPAPEGQADYDPVTPYVTEVESVVGENTMYAQVFNLQGKTPVSQKEESSATIYCSIRKPQVVPPPQQNDLEIPESPTYENFT [Q9HBG7]”, the “percentage of EdU-negative” value in data set [1] (protein concentration 0.02 µM) came to 25.2 ± 0.84%; in data set [1] (protein concentration 0.2 µM), 29.3 ± 0.77%; in data set [2] (protein concentration 0.02 µM), 4.82 ± 0.27%; in data set [2] (protein concentration 0.2 µM), 7.12 ± 0.12%.
“MKAIIHLTLLALLSVNTATNQGNSADAVTTTETATSGPTVAAADTTETNFPETASTTANTPSFPTATSPAPPIISTHSSSTIPTPAPPIISTHSSSTIPIPTAADSESTTNVNSLATSDIITASSPNDGLITMVPSETQSNNEMSPTTEDNQSSGPPTGTALLETSTLNSTGPSNPCQDDPCADNSLCVKLHNTSFCLCLEGYYYNSSTCKKGKVFPGKISVTVSETFDPEEKHSMAYQDLHSEITSLFKDVFGTSVYGQTVILTVSTSLSPRSEMRADDKFVNVTIVTILAETTSDNEKTVTEKINKAIRSSSSNFLNYDLTLRCDYYGCNQTADDCLNGLACDCKSDLQRPNPQSPFCVASSLKCPDACNAQHKQCLIKKSGGAPECACVPGYQEDANGNCQKCAFGYSGLDCKDKFQLILTIVGTIAGIVILSMIIALIVTARSNNKTKHIEEENLIDEDFQNLKLRSTGFTNLGAEGSVFPKVRITASRDSQMQNPYSRHSSMPRPDY [Q9H3R2]”: the “percentage of EdU-negative” value stood at 22.5 ± 1.3% in data set [1] (setting [6]), 26.7 ± 0.67% in data set [1] (setting [7]), 5.64 ± 0.33% in data set [2] (setting [6]) and 5.31 ± 0.37% in data set [2] (setting [7]).
With “MSERKEGRGKGKGKKKERGSGKKPESAAGSQSPALPPRLKEMKSQESAAGSKLVLRCETSSEYSSLRFKWFKNGNELNRKNKPQNIKIQKKPGKSELRINKASLADSGEYMCKVISKLGNDSASANITIVESNEIITGMPASTEGAYVSSESPIRISVSTEGANTSSSTSTSTTGTSHLVKCAEKEKTFCVNGGECFMVKDLSNPSRYLCKCQPGFTGARCTENVPMKVQNQEKAEELYQKRVLTITGICIALLVVGIMCVVAYCKTKKQRKKLHDRLRQSLRSERNNMMNIANGPHHPNPPPENVQLVNQYVSKNVISSEHIVEREAETSFSTSHYTSTAHHSTTVTQTPSHSWSNGHTESILSESHSVIVMSSVENSRHSSPTGGPRGRLNGTGGPRECNSFLRHARETPDSYRDSPHSERYVSAMTTPARMSPVDFHTPSSPKSPPSEMSPPVSSMTVSMPSMAVSPFMEEERPLLLVTPPRLREKKFDHHPQQFSSFHHNPAHDSNSLPASPLRIVEDEEYETTQEYEPAQEPVKKLANSRRAKRTKPNGHIANRLEVDSNTSSQSSNSESETEDERVGEDTPFLGIQNPLAASLEATPAFRLADSRTNPAGRFSTQEEIQARLSSVIANQDPIAV”, the “percentage of EdU-negative” value in data set [1] (setting [8]) is 23.8 ± 3.8%; in data set [1] (setting [9]), 24.8 ± 0.83%; in data set [2] (setting [8]) it was 4.23 ± 0.16%; in data set [2] (setting [9]), 4.694 ± 0.041%.
